Assay results reported in the Immune Epitope Database (IEDB).
One block for each sequence: values may come before it.

Columns and labels:
[1] = target: HLA-A*30:02; assay: IEDB peptide-MHC binding, purified MHC/competitive/radioactivity; filed as Kd, often an IC50 or EC50 that approximates it; ≥ and ≤ were set here for values at or beyond the usual limits of such assays
[2] = target: HLA-B*44:03; assay: as above
[3] = target: HLA-B*44:02; assay: as above
[4] = target: HLA-B*40:01; assay: as above
[5] = target: HLA-A*24:02; assay: as above
[6] = target: HLA-A*32:01; assay: as above
[7] = target: HLA-A*01:01; assay: as above
[8] = target: HLA-A*11:01; assay: IEDB peptide-MHC binding, purified MHC/direct/fluorescence; filed as Kd, often an IC50 or EC50 that approximates it; ≥ and ≤ were set here for values at or beyond the usual limits of such assays
[9] = target: HLA-A*23:01; assay: IEDB peptide-MHC binding, purified MHC/competitive/radioactivity; filed as Kd, often an IC50 or EC50 that approximates it; ≥ and ≤ were set here for values at or beyond the usual limits of such assays
[10] = target: HLA-A*26:01; assay: as above
[11] = target: HLA-A*69:01; assay: IEDB peptide-MHC binding, purified MHC/direct/fluorescence; filed as Kd, often an IC50 or EC50 that approximates it; ≥ and ≤ were set here for values at or beyond the usual limits of such assays
[12] = target: HLA-A*02:01; assay: as above
[13] = target: HLA-B*15:01; assay: as above
[14] = target: HLA-A*02:03; assay: IEDB peptide-MHC binding, purified MHC/competitive/radioactivity; filed as Kd, often an IC50 or EC50 that approximates it; ≥ and ≤ were set here for values at or beyond the usual limits of such assays; settings: source organism: Vaccinia virus WR
[15] = target: HLA-A*02:02; assay: as above; settings: source organism: Vaccinia virus WR
[16] = target: HLA-A*02:06; assay: as above; settings: source organism: Vaccinia virus WR
[17] = target: HLA-A*11:01; assay: as above; settings: source organism: Dengue virus 1 Brazil/97-11/1997
[18] = target: HLA-A*03:01; assay: IEDB peptide-MHC binding, purified MHC/direct/fluorescence; filed as Kd, often an IC50 or EC50 that approximates it; ≥ and ≤ were set here for values at or beyond the usual limits of such assays; settings: source organism: Clostridium botulinum
[19] = source organism: Dengue virus 2 Jamaica/1409/1983
[20] = source organism: Dengue virus 3 Martinique/1243/1999
[21] = source organism: Dengue virus 4 Philippines/H241/1956
[22] = source organism: Dengue virus 1 Brazil/97-11/1997
[23] = source organism: Vaccinia virus WR
[24] = source organism: Salmonella enterica subsp. enterica serovar Typhimurium
[25] = source organism: Dengue virus 2 Peru/IQT2913/1996
[26] = source organism: Pseudomonas aeruginosa
[27] = source organism: Mammarenavirus brazilense
[28] = source organism: Dengue virus 1 Nauru/West Pac/1974
[29] = source organism: Rickettsia conorii
[30] = source organism: Cryptosporidium parvum

Sequence: AALLLLVAHY
Kd [1, 19]: 10500 nM

Sequence: AELEEGVYR
Kd [2, 20]: 9270 nM

Sequence: AEYTNSVTNI
Kd [3, 21]: 280 nM
Kd [2, 21]: 51.6 nM
Kd [4, 21]: 158 nM

Kd ([5]; source organism: Homo sapiens): 20 nM
Sequence: AFLPWHRLF

Sequence: AGILKRWGQL
Kd [6, 21]: 4440 nM

Sequence: AICSAVPVDW
Kd [3, 22]: 893 nM

Sequence: ASDRMGMGV
Kd [7, 20]: 1370 nM

Sequence: ATFLWWIPL
Kd ([8]; source organism: Bacillus anthracis): 12.4 nM

Sequence: AYMIGQTGI
Kd [5, 21]: 93 nM

Sequence: CNLTSAWVMY
Kd [1, 21]: 554 nM

Sequence: DEDNPYKTW
Kd [3, 22]: 519 nM
Kd [2, 22]: 640 nM

Sequence: DFKGKTVWF
Kd [9, 19]: 14400 nM

Sequence: DINFITVNI
Kd [6, 23]: 424 nM

Sequence: DMCDIYLLY
Kd [9, 23]: 216 nM
Kd [5, 23]: 2070 nM

Sequence: EAILPEYGTL
Kd [10, 20]: 13900 nM

Sequence: EEALKGLPI
Kd [4, 20]: 3380 nM

Kd ([3]; source organism: Homo sapiens): 143 nM
Sequence: EEKLSVVLF

Sequence: EERVILAGPM
Kd [3, 19]: 2280 nM
Kd [4, 19]: 2740 nM

Sequence: EHALLATSIF
Kd [10, 22]: ≥ 22400 nM
Kd [9, 22]: 4610 nM

Sequence: ELLSHVGQA
Kd [11, 24]: 63.1 nM
Kd [12, 24]: 3590 nM

Sequence: ETLLLLTLLA
Kd [10, 19]: ≥ 22700 nM

Sequence: EVTARWLWGF
Kd ([10]; source organism: Dengue virus 1 Singapore/S275/1990): 32.7 nM

Sequence: EYPKTKLTDW
Kd [9, 21]: 2550 nM
Kd [5, 21]: 954 nM

Sequence: EYQKTKNNDW
Kd [9, 22]: ≥ 33600 nM
Kd [5, 22]: 19700 nM

Sequence: EYVKTRTNDW
Kd [9, 25]: 3410 nM
Kd [5, 25]: 2170 nM

Kd ([13]; source organism: Homo sapiens): 465 nM
Kd ([12]; source organism: Homo sapiens): 14400 nM
Sequence: FHMDPSGTF

Sequence: FTNMEAQLV
Kd ([7]; source organism: Dengue virus 3 Sri Lanka/1266/2000): 403 nM

Sequence: GPISTLWEGN
Kd [6, 19]: 9040 nM

Sequence: GSPGKFWNTT
Kd [6, 22]: ≥ 25700 nM

Kd [11, 26]: 1340 nM
Kd [8, 26]: 6490 nM
Kd [12, 26]: 5720 nM
Sequence: GVFKVWHPI

Sequence: GVPPLPLFIF
Kd [5, 20]: 494 nM

Sequence: GVSGGSWVDI
Kd [6, 19]: 4310 nM

Sequence: GYKETPFLT
Kd [10, 27]: ≥ 77900 nM
Kd [1, 27]: ≥ 76900 nM
Kd [7, 27]: ≥ 65200 nM

Sequence: HEEPVPMSTY
Kd [3, 20]: 106 nM
Kd [2, 20]: 409 nM

Sequence: IEKASFIEV
Kd [4, 25]: 4040 nM

Sequence: IESQKNGSW
Kd [3, 20]: 452 nM
Kd [2, 20]: 166 nM

Sequence: IFGTAYGVLF
Kd [9, 28]: 10.4 nM
Kd [5, 28]: 37.6 nM

Sequence: IIIFFIVLI
Kd [6, 23]: 13.7 nM

Sequence: IIMFDAEKL
Kd [11, 29]: 1110 nM
Kd [13, 29]: 3350 nM

Sequence: IINKFFEVI
Kd [6, 23]: 11.1 nM

Sequence: IISYIILFI
Kd [6, 23]: ≥ 27600 nM
Kd [14]: 58.7 nM
Kd [15]: 2.78 nM
Kd [16]: 27.1 nM

Sequence: IQRDQVTDY
Kd [13, 24]: 239 nM

Sequence: ITINYFLLL
Kd [6, 23]: ≥ 77800 nM

Sequence: ITISEDGSM
Kd [10, 19]: 2990 nM

Sequence: KALKLSWFKK
Kd [6, 22]: 9280 nM
Kd [17]: 135 nM

Sequence: KEAKMLLDNI
Kd [2, 19]: 1760 nM

Sequence: KEENMVKSL
Kd [4, 20]: 156 nM

Sequence: KEGDQYIYM
Kd [4, 28]: 45.1 nM

Sequence: KEIGRMLNI
Kd [3, 19]: 418 nM
Kd [2, 19]: 417 nM
Kd [4, 19]: 216 nM

Sequence: KILLVAVSI
Kd ([6]; source organism: Vaccinia virus Copenhagen): 1.54 nM

Sequence: KINNFANEF
Kd [6, 23]: 2.08 nM

Sequence: KLALITVSG
Kd [6, 21]: 82.8 nM

Sequence: KMFNSVGGA
Kd [11, 30]: ≥ 20000 nM
Kd [12, 30]: 26 nM

Sequence: KYLYLWSFK
Kd [18]: 167 nM

Sequence: LEELGDGLAM
Kd [4, 22]: 51.2 nM

Sequence: LFKTNTGTI
Kd [5, 19]: 1280 nM

Sequence: LKIVRNMEKY
Kd [1, 19]: 55.2 nM

Sequence: LTARATWATN
Kd [6, 22]: ≥ 44400 nM

Sequence: LTSKELMMA
Kd [7, 19]: 5730 nM

Sequence: MEFIDGISL
Kd [3, 21]: 182 nM
Kd [2, 21]: 52.9 nM
Kd [4, 21]: 0.18 nM

Sequence: MEKYQLAVTI
Kd [3, 19]: 331 nM

Sequence: METLLLLGL
Kd [3, 20]: 8.98 nM
Kd [2, 20]: 33.2 nM
Kd [4, 20]: 81.3 nM
